Reference: publication PMC2697983

What follows are substances tested on GST-QKI-5 (assay: EMSA). Details: EMSA: 20 mM HEPES pH 7.4, 330 mM KCl, 10 mM MgCl2, 0.1 mM EDTA, 0.1 mg/ml heparin, 0.01% IGEPAL CA630, room temperature, 1 h; SELEX: 50 mM Tris-HCl pH 8.0 ….
In the case of QRE-2:wt, the Kd is reported as 121 nM. Substance TGE-wt has a Kd of 300 nM.

What follows are substances tested against T1, His-SLM-2 (UniProt Q9R226) (assay: EMSA). Details: EMSA: 20 mM HEPES pH 7.4, 330 mM KCl, 10 mM MgCl2, 0.1 mM EDTA, 0.1 mg/ml heparin, 0.01% IGEPAL CA630, room temperature, 1 h; SELEX: 50 mM Tris-HCl pH 8.0 ….
T1 sequence: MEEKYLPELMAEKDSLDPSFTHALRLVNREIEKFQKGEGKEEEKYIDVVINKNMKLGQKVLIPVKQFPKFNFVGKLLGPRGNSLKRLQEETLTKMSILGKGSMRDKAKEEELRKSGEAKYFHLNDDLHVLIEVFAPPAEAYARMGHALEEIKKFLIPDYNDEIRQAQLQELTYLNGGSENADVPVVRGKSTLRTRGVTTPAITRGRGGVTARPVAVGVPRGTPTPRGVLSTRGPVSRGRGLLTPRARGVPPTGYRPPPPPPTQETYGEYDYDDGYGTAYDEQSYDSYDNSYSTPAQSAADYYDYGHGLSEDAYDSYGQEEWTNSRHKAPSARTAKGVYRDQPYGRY
In the case of “AUCGUAAUAAACAAUUAAUUUGGAUUUCUUGAGCUUAUGGCUUUUAAUAUGGG [SRE-7m2]”, the Kd is reported as 14.5 nM. AUCGUGGUGGGCGGUUAAUUUGGAUUU [SRE-7d1] was tested, and the Kd was greater than 1000 nM. Substance “AUCGUGGUGGGCGGUUAAUUUGGAUUUCUUGAGCUUAUGGCUCGACGCAUGGG [SRE-7m3]” has a Kd greater than 1000 nM. “AUCGUGGUGGGCGGUUAAUUUGGAUUUCUUGAGCUUAUGGCUUUUAAUAUGGG [SRE-7wt]” gave a Kd of 30.3 nM. For “AUCUUGUUCUCCGCUUAAUUUGGAUUUCUUGAGCUUAUGGCUUUUAAUAUGGG [SRE-7m1]”, the Kd was 45.2 nM. For GGAUUUCUUGAGCUUAUGGCUUUUAAU [SRE-7d6], the Kd was greater than 1000 nM. “GGUUAAUCUGGAUUUCUUGAGCUUAUGGCUUUUCCUAUGG [SRE-7d9m3]” gave a Kd of 400 nM. Substance GGUUAAUUUGGAUUUCUUGAGCUUAUG [SRE-7d3] has a Kd greater than 1000 nM. Work on “GGUUAAUUUGGAUUUCUUGAGCUUAUGGCUUUU [SRE-7d8]” yielded a Kd greater than 1000 nM. “GGUUAAUUUGGAUUUCUUGAGCUUAUGGCUUUUAAUAUGG [SRE-7d9]” gave a Kd of 22.3 nM. Work on “GGUUCCCCUGGAUUUCUUGAGCUUAUGGCUUUCCCCAUGG [SRE-7d9m1]” yielded a Kd greater than 1000 nM. “GGUUCCUUUGGAUUUCUUGAGCUUAUGGCUUUUAAUAUGG [SRE-7d9m2]” showed a Kd of 400 nM. For “GGUUCUACCCCAAUUUUCACUAUCCUACCCCCAGUUCC [SRE-4m1]”, the Kd was greater than 1000 nM. In the case of “GGUUCUACCCCAAUUUUCACUAUCCUAUUAACAGUUCC [SRE-4m2]”, the Kd is reported as greater than 1000 nM. Substance “GGUUCUAUAAAAAUUUUCACUAUCCUACCCCCAGUUCC [SRE-4m3]” has a Kd greater than 1000 nM. For “GGUUCUAUAAAAAUUUUCACUAUCCUAUUAACAGUUCC [SRE-4wt]”, the Kd was 16.3 nM. “GGUUCUAUACCCCCUUUCACUAUCCUAUUAACAGUUCC [SRE-4m4]” was tested, and the Kd was greater than 1000 nM. GUGGGCGGUUAAUUUGGAUUUCUUGAG [SRE-7d2] showed a Kd greater than 1000 nM. In the case of UAAUUUGGAUUUCUUGAGCUUAUGGCU [SRE-7d7], the Kd is reported as greater than 1000 nM. Work on UUUCUUGAGCUUAUGGCUUUUAAUAUGG [SRE-7d5] yielded a Kd greater than 1000 nM. For UUUGGAUUUCUUGAGCUUAUGGCUUUU [SRE-7d4], the Kd was greater than 1000 nM.

Each substance was assayed on MBP-GLD-1 (C. elegans) (assay: EMSA). Details: EMSA: 20 mM HEPES pH 7.4, 330 mM KCl, 10 mM MgCl2, 0.1 mM EDTA, 0.1 mg/ml heparin, 0.01% IGEPAL CA630, room temperature, 1 h; SELEX: 50 mM Tris-HCl pH 8.0 ….
TGE-wt gave a Kd of 104 nM.
